Source: publication PMC10819763, “Reconstitution of the phosphodiesterase 6 maturation process important for photoreceptor cell function” (The Journal of Biological Chemistry, 2023)
“And” between values parts separate entries of the source, which are not always exact repeats. Identical values can stand only once.

B1: human cone PDE6C (aa 1-830), expressed as an EGFP fusion protein and released with HRV-3C protease (enzyme, UniProt P51160 1-830, looked up)
chain: MGEINQVAVEKYLEENPQFAKEYFDRKLRVEVLGEIFKNSQVPVQSSMSFSELTQVEESALCLELLWTVQEEGGTPEQGVHRALQRLAHLLQADRCSMFLCRSRNGIPEVASRLLDVTPTSKFEDNLVGPDKEVVFPLDIGIVGWAAHTKKTHNVPDVKKNSHFSDFMDKQTGYVTKNLLATPIVVGKEVLAVIMAVNKVNASEFSKQDEEVFSKYLNFVSIILRLHHTSYMYNIESRRSQILMWSANKVFEELTDVERQFHKALYTVRSYLNCERYSIGLLDMTKEKEFYDEWPIKLGEVEPYKGPKTPDGREVNFYKIIDYILHGKEEIKVIPTPPADHWTLISGLPTYVAENGFICNMMNAPADEYFTFQKGPVDETGWVIKNVLSLPIVNKKEDIVGVATFYNRKDGKPFDEHDEYITETLTQFLGWSLLNTDTYDKMNKLENRKDIAQEMLMNQTKATPEEIKSILKFQEKLNVDVIDDCEEKQLVAILKEDLPDPRSAELYEFRFSDFPLTEHGLIKCGIRLFFEINVVEKFKVPVEVLTRWMYTVRKGYRAVTYHNWRHGFNVGQTMFTLLMTGRLKKYYTDLEAFAMLAAAFCHDIDHRGTNNLYQMKSTSPLARLHGSSILERHHLEYSKTLLQDESLNIFQNLNKRQFETVIHLFEVAIIATDLALYFKKRTMFQKIVDACEQMQTEEEAIKYVTVDPTKKEIIMAMMMTACDLSAITKPWEVQSQVALMVANEFWEQGDLERTVLQQQPIPMMDRNKRDELPKLQVGFIDFVCTFVYKEFSRFHKEITPMLSGLQNNRVEWKSLADEYDAKMKVIEEEA
notes: human PDE6C, cone cGMP phosphodiesterase catalytic subunit, truncation of the C-terminal 28 residues (aa 1-830); GFP and PDE6C cDNAs were spliced with primers containing the HRV-3C site and a FLAG tag, cloned into pFastBac HT A by Gibson assembly; also called EGFP-PDE6C; source: Sf9 cells (baculovirus), alone or co-expressed with AIPL1 or with AIPL1 and Pγ; purified (EGFP-nanobody resin, HRV-3C …)

What was measured:
[1] = target: the molecule itself; assay: SEC; PDE6C co-expressed with AIPL1, eluted from EGFP-nanobody resin with HRV-3C, preincubated with 3 mM ATP for 10 min at 25 °C; Superose 6 10/300 GL in 10 mM HEPES pH 7.5, 150 mM NaCl, 1 mM TCEP, 2 mM MgCl2
[2] = target: B1; assay: inhibition of enzyme activity (cGMP hydrolysis); purified PDE6C (co-expressed with AIPL1) inhibited by purified recombinant Pγr; 20 mM Tris-HCl pH 7.5, 120 mM NaCl, 2 mM MgSO4, 1 mM BME, 10 μM [3H]cGMP, 25 °C; settings: both partners purified
[3] = target: T1, trypsin-activated PDE6AB from mouse retina extract (mouse (endogenous in retina), UniProt P27664 1-859; P23440 1-856); assay: inhibition of enzyme activity (cGMP hydrolysis); trypsin-treated mouse retina extract inhibited by purified recombinant Pγr; 20 mM Tris-HCl pH 7.5, 120 mM NaCl, 2 mM MgSO4, 1 mM BME, 10 μM [3H]cGMP, 25 °C; settings: one partner purified
T1 construct: mouse rod PDE6 catalytic subunit PDE6A, after trypsin treatment of the retina lysate; mouse rod PDE6 catalytic subunit PDE6B, after trypsin treatment of the retina lysate; Trypsin treatment degrades the endogenous Pγ; The retina extract also holds a few percent of cone PDE6C activity; also called mouse rod PDE6; source: endogenous, C57BL/J mouse retina lysate, trypsin-treated; copies: 1 + 1
T1 sequence (P27664 whole entry, chain 1 of 2): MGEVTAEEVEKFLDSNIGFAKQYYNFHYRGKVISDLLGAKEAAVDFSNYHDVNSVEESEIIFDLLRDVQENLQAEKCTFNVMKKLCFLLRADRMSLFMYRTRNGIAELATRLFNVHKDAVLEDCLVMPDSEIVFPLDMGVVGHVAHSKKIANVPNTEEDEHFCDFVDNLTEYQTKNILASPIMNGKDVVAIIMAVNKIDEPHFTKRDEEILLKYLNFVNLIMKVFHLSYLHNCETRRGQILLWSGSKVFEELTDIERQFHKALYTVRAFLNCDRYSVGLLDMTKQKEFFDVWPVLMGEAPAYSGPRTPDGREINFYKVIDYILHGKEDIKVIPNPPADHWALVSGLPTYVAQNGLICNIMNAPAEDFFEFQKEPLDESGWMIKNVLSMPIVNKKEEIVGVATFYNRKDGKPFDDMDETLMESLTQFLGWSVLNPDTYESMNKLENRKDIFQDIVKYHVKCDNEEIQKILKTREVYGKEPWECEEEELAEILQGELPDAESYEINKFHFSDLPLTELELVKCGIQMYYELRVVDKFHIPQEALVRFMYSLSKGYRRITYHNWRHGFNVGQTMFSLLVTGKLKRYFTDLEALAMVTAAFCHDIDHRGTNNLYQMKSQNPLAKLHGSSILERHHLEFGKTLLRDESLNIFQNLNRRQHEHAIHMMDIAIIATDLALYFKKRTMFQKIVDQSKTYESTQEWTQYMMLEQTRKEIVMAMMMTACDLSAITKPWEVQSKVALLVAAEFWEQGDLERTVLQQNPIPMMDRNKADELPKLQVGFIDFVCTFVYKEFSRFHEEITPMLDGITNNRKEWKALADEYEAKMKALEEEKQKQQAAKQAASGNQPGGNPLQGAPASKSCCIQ
T1 sequence (P23440 whole entry, chain 2 of 2): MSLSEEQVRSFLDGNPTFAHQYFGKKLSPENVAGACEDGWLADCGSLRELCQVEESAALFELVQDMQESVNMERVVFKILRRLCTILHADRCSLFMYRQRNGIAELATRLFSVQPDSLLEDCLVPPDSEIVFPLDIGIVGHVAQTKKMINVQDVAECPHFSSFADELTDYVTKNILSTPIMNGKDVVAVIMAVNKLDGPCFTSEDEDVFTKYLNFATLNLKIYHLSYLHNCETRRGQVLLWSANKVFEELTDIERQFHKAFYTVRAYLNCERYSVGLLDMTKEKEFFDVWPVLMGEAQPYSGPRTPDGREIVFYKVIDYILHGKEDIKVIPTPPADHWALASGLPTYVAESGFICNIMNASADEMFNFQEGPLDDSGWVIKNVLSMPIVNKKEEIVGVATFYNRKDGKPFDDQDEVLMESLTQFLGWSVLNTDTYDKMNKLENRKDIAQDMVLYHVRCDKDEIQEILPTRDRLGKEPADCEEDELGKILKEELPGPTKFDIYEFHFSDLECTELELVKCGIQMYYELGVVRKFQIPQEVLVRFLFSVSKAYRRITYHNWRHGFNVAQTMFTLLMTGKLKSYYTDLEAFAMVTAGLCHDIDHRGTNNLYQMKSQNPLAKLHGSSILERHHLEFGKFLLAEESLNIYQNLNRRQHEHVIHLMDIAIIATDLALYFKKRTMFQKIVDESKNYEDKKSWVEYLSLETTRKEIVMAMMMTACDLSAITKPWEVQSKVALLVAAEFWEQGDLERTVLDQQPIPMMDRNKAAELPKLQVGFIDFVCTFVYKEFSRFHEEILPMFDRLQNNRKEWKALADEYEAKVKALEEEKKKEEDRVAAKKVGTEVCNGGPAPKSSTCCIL

In the case of B1, the “stoichiometry N” value [1] is reported as 2.

B2: His6-tagged bovine Pγr (rod PDE6 inhibitory γ-subunit), bacterially expressed (natural protein, UniProt P04972 1-87, looked up)
chain: MNLEPPKAEIRSATRVMGGPVTPRKGPPKFKQRQTRQFKSKPPKKGVQGFGDDIPGMEGLGTDITVICPWEAFNHLELHELAQYGII
notes: also called rod Pγ; purified recombinant Pγr
In the case of B2, the Ki [2] is reported as 0.095 nM and 0.088 nM and the Ki [3] is reported as 0.089 nM.
